Biological target: the molecule itself
Experiment: cell-based or functional assay

B1: Sec2p (51–142) (domain or fragment, UniProt P17065 51-142, looked up)
chain: NYNQLKEDYNTLKRELSDRDDEVKRLREDIAKENELRTKAEEEADKLNKEVEDLTASLFDEANNMVADARKEKYAIEILNKRLTEQLREKDT
mantGDP dissociation rate from Sec4p(19-187) stimulated by 500 nM Sec2p(51-142), compared with Sec2p(1-160): 20 fold slower than Sec2p 1-160

— publication PMC4531439, “New insights into the molecular mechanism of the Rab GTPase Sec4p activation” (BMC Structural Biology, 2015)
